From the supplement of paper PMC10126150
± gives the standard deviation of the averaged measurements.

Test system: ATP
Experiment: switch fluorescence ratio, 500 uM ATP over buffer (Cy3 cluster intensity, sum of 5 cycles each) (fold (ratio)); higher = stronger signal-on switching upon ATP binding; sequences stand for … in TCGTCGGCAGCGTCAGATGTGTATAAGAGACAGTTTTTTTTTTTTTTTTTTTTTTTTT…TC
Conditions: aptamer strand: ATP DNA aptamer (quencher-CACCTGGGGGAGTATTGCGGAGGAAGG + anchor), 100 nM annealed; ATP concentration: 500 uM
How it was run: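 Imaging in selection buffer was followed by imaging after 15 min with 500 uM ATP at 22 °C, for Cy3-labelled switching-strand clusters annealed to 100 nM quencher-labelled ATP aptamer on a modified Illumina MiSeq flow-cell. Five of these buffer/ATP cycles ran, separated by NaOH stripping and re-annealing. The fluorescence ratio per cluster is summed target-cycle over summed buffer-cycle Cy3 intensity, averaged per switch-domain sequence; clusters outside 100-1000 RFU were removed.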
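Further: ATP exposure 15 min at 22 °C before imaging.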

| Sequence | switch fluorescence ratio |
| --- | --- |
| TCGATTTGAT | 0.98541 ± 0.00062 |
| CACTTTTTTA | 0.962 ± 0.039 |
| CCAAGATGTG | 0.997 ± 0.01 |
| GCTGACATTC | 0.992 ± 0.04 |
| TATTATATGG | 1.03 ± 0.027 |
| TGAGCGGGAG | 1.0564 ± 0.00029 |
| GACCTGAGCA | 1.113 ± 0.0034 |
| ATATATGGTT | 0.988 ± 0.036 |
| TTGATATCTA | 0.982 ± 0.049 |
| GGCGGGGGAC | 0.987 ± 0.057 |
| TGAGAGGGGC | 0.973 ± 0.058 |
| AGAGTACGGC | 1.09 ± 0.017 |
| GGGGTGGTGT | 1.03 ± 0.027 |
| TTATTCGTCC | 1.04 ± 0.058 |
| AAAATACCTA | 1.15 ± 0.14 |
| CTGTGGCAGG | 1.021 ± 0.0041 |
| AAAGTTGCAG | 1.02 ± 0.023 |
| TGTAAAAAGT | 1 ± 0.026 |
| GCCGGACTTT | 1.01 ± 0.012 |
| GCACGTTTTT | 1 ± 0.03 |
| AAGTTGGGT | 0.95 ± 0.017 |
| GTGATTGATC | 1.04 ± 0.023 |
| TGGGGGAACC | 1.004 ± 0.0099 |
| TTTCGGCACT | 1.01 ± 0.05 |
| GAAGTTGGAG | 0.97 ± 0.053 |

| Sequence | switch fluorescence ratio |
| --- | --- |
| TTTTTTGGAC | 1.01 ± 0.045 |
| ACAGTAAGAG | 1.03 ± 0.049 |
| TTAGTATGTT | 1 ± 0.035 |
| CGGGTATGCC | 0.96 ± 0.0098 |
| GGGCCGATCA | 0.997 ± 0.036 |
| TTGAGGAATG | 1.02 ± 0.018 |
| AATAGTTATT | 0.9791 ± 0.003 |
| AAAGAGAGAA | 0.9998 ± 0.0093 |
| ACTAATGCGC | 1.05 ± 0.019 |
| AATGTTTTTG | 1.02 ± 0.046 |
| CATCGGTCTT | 0.958 ± 0.039 |
| TAGGGCTGGG | 0.972 ± 0.048 |
| TTTAAAAAGC | 0.996 ± 0.032 |
| GACTTCGGGA | 1.13 ± 0.052 |
| AACACGTATA | 1.227 ± 0.0097 |
| GGATAAGGCC | 1 ± 0.012 |
| GGTAGCGGGG | 1.02 ± 0.014 |
| CGGGCTTCGA | 0.993 ± 0.013 |
| ACGATTAGTT | 0.971 ± 0.032 |
| GGGAAGCGCC | 0.9967 ± 0.0032 |
| ATCGCCATCC | 1.235 ± 0.0026 |
| TGCAAGGCGC | 1.23 ± 0.24 |
| CGGACACGAA | 0.981 ± 0.022 |
| TACGTCACGA | 1.42 ± 0.19 |
| GCGGGAAATT | 1 ± 0.03 |

| Sequence | switch fluorescence ratio |
| --- | --- |
| ACTAAGGGCG | 1.09 ± 0.019 |
| TTGTTAGAA | 1.0004 ± 0.001 |
| CGTGACAGGG | 1.04 ± 0.058 |
| GGGCACGAAG | 1 ± 0.013 |
| GCATGGAAGA | 0.992 ± 0.015 |
| TTCTAAAAAA | 1.01 ± 0.021 |
| TTTTAGGATG | 0.996 ± 0.025 |
| TAGGGGAGAT | 1.027 ± 0.0098 |
| AGTGGGGCT | 0.9794 ± 0.0071 |
| TCGACGTCTC | 1.29 ± 0.16 |
| GTTGGGGGGA | 1 ± 0.033 |
| TTGATATAGT | 0.9993 ± 0.0073 |
| GGTTAGATAG | 1.01 ± 0.035 |
| TGTAGGGATT | 1.01 ± 0.054 |
| TTGAGTCATG | 0.978 ± 0.047 |
| TTTAAGACAA | 0.9892 ± 0.0025 |
| AACGGACAGG | 1.27 ± 0.049 |
| CAGGGGTCTA | 0.9957 ± 0.004 |
| TGAGGGGAGA | 1.02 ± 0.028 |
| GTGGAAGGTT | 0.995 ± 0.014 |
| TCCGTTTGTT | 0.991 ± 0.04 |
| TGGTCCGCTA | 1.755 ± 0.011 |
| TGTGGTACCA | 1.01 ± 0.023 |
| TCGCGGAATT | 1.01 ± 0.066 |
| TTTTCCGTGG | 1.01 ± 0.069 |

| Sequence | switch fluorescence ratio |
| --- | --- |
| TAACGTTTTC | 0.983 ± 0.06 |
| GGGATTAGTT | 1.03 ± 0.023 |
| AAATGGGGGT | 0.975 ± 0.011 |
| TTATACGTCG | 1.01 ± 0.023 |
| GGGGTGCCCG | 0.948 ± 0.018 |
| CTGCGTCTAA | 1.03 ± 0.027 |
| TTCTCGTACA | 1.19 ± 0.29 |
| GGAAGAGGGG | 0.991 ± 0.016 |
| TTGAGCAGCG | 1.09 ± 0.07 |
| GATGGCATAA | 1.01 ± 0.025 |
| AGCATGGCTT | 1.04 ± 0.054 |
| CCCGGTTGAT | 1.047 ± 0.0074 |
| TGCTAATCTG | 0.958 ± 0.025 |
| CCTTGGCGCG | 0.995 ± 0.035 |
| AAGAAACGGG | 1.025 ± 0.008 |
| GAGAGGGTGT | 1.05 ± 0.081 |
| TACCGGGGGT | 1.63 ± 0.83 |
| ATTAGCGCCC | 1.01 ± 0.032 |
| TTTTTGAT | 0.972 ± 0.022 |
| GAGATCGGTG | 0.96 ± 0.023 |
| TTATGGGCGA | 1 ± 0.046 |
| AGACGAAAGA | 1.02 ± 0.027 |
| TTTACAAGTA | 1.031 ± 0.0049 |
| GCCGCTTGCA | 0.9973 ± 0.0053 |
| GGTTGTCCTA | 0.978 ± 0.023 |
